In US20230167182A1 (BIOSION, published 2023):
Read-outs that look alike come from different tables or passages of the source.

T1: macaca IL6R-his protein (macaca mulatta)
T1 chain: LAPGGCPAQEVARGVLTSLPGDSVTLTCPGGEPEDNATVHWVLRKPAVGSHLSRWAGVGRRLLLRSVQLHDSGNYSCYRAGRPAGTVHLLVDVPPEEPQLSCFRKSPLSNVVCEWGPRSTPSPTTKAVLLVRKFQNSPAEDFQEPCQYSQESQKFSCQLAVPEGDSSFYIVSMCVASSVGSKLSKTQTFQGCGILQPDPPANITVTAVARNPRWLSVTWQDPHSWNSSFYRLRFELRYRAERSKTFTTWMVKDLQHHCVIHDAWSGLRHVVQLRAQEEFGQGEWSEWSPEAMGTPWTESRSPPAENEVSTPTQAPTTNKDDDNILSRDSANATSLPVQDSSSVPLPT


Legend:
macaca IL6R-his protein [1] = biological target: T1, macaca IL6R-his protein; experiment: indirect ELISA on plate-coated macaca IL6R-his
human IL6R-Fc protein [2] = biological target: T2, human IL6R-Fc protein (human, biotin-labeled in the ELISAs (sites not given)); experiment: benchmark blocking ELISA: antibody pre-incubated with biotin-labeled human IL6R-Fc, added to plate-coated Tocilizumab (competitor: Tocilizumab)
T2 construct: In house made; also called biotin-labeled human IL6R-Fc protein
Procedure: (§1) ELISA plates were washed once with wash buffer (PBS+0.05% v/v Tween-20, PBST) and then blocked with 200 μl/well blocking buffer (5% w/v non-fatty milk in PBST) overnight at 4° C.
(§2) The next day, the anti-IL6R antibodies of the disclosure or controls were diluted with biotin labeled human IL6R-Fc protein (SEQ ID NO: 43, 13.6 ng/ml in 2.5% w/v non-fatty milk in PBST), starting at 100 nM with a 5-fold serial dilution, and incubated at room temperature for 40 minutes. […] After incubation at 37° C. for 40 minutes, plates were washed 4 times using wash buffer. Then streptavidin conjugated HRP was added, and the plates were incubated for 40 minutes at 37° C. The plates were finally washed using wash buffer, and added with TMB. The reaction was stopped using 1M […], and the absorbance was read on a microplate reader using dual wavelength mode with 450 nm for TMB and 630 nm as the reference wavelength. The OD (450-630) values were plotted against antibody concentration. Data was analyzed using Graphpad Prism software and IC₅₀ values were reported.
Target sequence in this assay (chain, as listed by the source limits assumed): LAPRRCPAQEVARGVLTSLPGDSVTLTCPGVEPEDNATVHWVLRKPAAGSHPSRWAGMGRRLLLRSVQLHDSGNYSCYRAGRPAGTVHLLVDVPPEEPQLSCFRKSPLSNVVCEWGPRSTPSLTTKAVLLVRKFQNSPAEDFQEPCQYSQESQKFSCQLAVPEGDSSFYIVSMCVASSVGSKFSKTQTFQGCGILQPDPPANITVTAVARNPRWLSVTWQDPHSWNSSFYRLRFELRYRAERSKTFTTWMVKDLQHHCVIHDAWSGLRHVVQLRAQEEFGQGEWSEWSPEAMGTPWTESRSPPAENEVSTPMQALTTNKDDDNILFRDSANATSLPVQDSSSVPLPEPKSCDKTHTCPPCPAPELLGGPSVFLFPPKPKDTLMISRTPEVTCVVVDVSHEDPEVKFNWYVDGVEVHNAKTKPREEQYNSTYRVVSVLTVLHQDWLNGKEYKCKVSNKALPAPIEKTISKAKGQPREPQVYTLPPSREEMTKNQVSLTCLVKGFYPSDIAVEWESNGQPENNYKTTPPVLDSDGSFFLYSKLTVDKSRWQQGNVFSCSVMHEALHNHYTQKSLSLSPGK

human IL6R-Fc protein [3] = biological target: T2, human IL6R-Fc protein; experiment: as above; remark: listed apart in the source
Procedure: as §1, §2

human IL6R-Fc protein [4] = biological target: T2, human IL6R-Fc protein; experiment: ligand blocking ELISA: antibody pre-incubated with biotin-labeled human IL6R-Fc, added to plate-coated human IL6 (blocked ligand: human IL6)
Procedure: (§3) The next day, anti-IL6R antibodies or controls were diluted with biotin labeled human IL6R-Fc protein (prepared in house, SEQ ID NO: 43, 39.5 ng/ml in 2.5% w/v non-fatty milk in PBST), starting at 100 nM with a 4-fold serial dilution, and incubated at room temperature for 40 minutes. […] Plates were washed for 4 times using wash buffer, and added and incubated with 100 μl/well of streptavidin conjugated HRP (1:10000 dilution in PBST buffer, Jackson ImmunoResearch Laboratories, Inc., Cat #016-030-084) for 40 minutes at 37° C. Plates were washed again using wash buffer. Finally, TMB was added and the reaction was stopped using 1M H₂SO₄. The absorbance was read on a microplate reader using dual wavelength mode with 450 nm for TMB and 630 nm as the reference wavelength, and then the OD (450-630) values were plotted against antibody concentration. Data was analyzed using Graphpad Prism software and IC₅₀ values were reported.

macaca IL6R-his protein [5] = biological target: T1, macaca IL6R-his protein; experiment: indirect ELISA on plate-coated macaca IL6R-his
Procedure: The anti-IL6R antibodies were tested for their cross-reaction with macaca IL6R. Briefly, 96-well micro plates were coated with 2 μg/ml macaca IL6R-his protein (in house made, amino acid sequence set forth in SEQ ID NO:45) in carbonate/bicarbonate buffer (pH 9.6), 100 μl/well, for 2 hours at 37° C. ELISA plates were washed once with wash buffer (PBS+0.05% v/v Tween-20, PBST) and then blocked with 200 μl/well blocking buffer (5% w/v non-fatty milk in PBST) for 2 hours at 37° C. Plates were washed 4 times and incubated with 100 μl/well serially diluted anti-IL6R antibodies of the disclosure or controls, starting at 66.67 nM with 5-fold serial dilution in PBST with 2.5% w/v non-fat milk, and incubated at 37° C. for 40 minutes. ELISA plates were washed 4 times again and incubated with 100 μl/well Peroxidase AffiniPure Goat Anti-Mouse IgG, Fcγ Fragment Specific (1:5000 dilution in PBST buffer, Jackson ImmunoResearch Laboratories, Inc., Cat #115-035-071) for 40 minutes at 37° C. After the final wash, plates were incubated with 100 μl/well TMB (InnoReagents). The reaction was stopped 3-10 minutes later at room temperature with 50 μl/well 1M H₂SO₄, and the absorbance of each well was read on a microplate reader using dual wavelength mode with 450 nm for TMB and 630 nm as the reference wavelength. Then the OD (450-630) values were plotted against antibody concentration. Data was analyzed using Graphpad Prism software and EC₅₀ values were reported.

human IL6R-Fc protein [6] = biological target: T2, human IL6R-Fc protein; experiment: ligand blocking ELISA: antibody pre-incubated with biotin-labeled human IL6R-Fc, added to plate-coated human IL6 (blocked ligand: human IL6); remark: listed apart in the source
Procedure: as §3

human IL6R-Fc protein [7] = biological target: T2, human IL6R-Fc protein; experiment: as above; remark: listed apart in the source
Procedure: as §3

Row | Binder | EC50 (macaca IL6R-his protein [1]) | IC50 (human IL6R-Fc protein [2]) | IC50 (human IL6R-Fc protein [3]) | IC50 (human IL6R-Fc protein [4]) | EC50 (macaca IL6R-his protein [5]) | IC50 (human IL6R-Fc protein [6]) | IC50 (human IL6R-Fc protein [7])
1 | Tocilizumab (antibody, human IgG1, kappa, V domains shown, In house made; also called benchmark; Actemra) VH: QVQLQESGPGLVRPSQTLSLTCTVSGYSITSDHAWSWVRQPPGRGLEWIGYISYSGITTYNPSLKSRVTMLRDTSKNQFSLRLSSVTAADTAVYYCARSLARTTAMDYWGQGSLVTVSS VL: DIQMTQSPSSLSASVGDRVTITCRASQDISSYLNWYQQKPGKAPKLLIYYTSRLHSGVPSRFSGSGSGTDFTFTISSLQPEDIATYYCQQGNTLPYTFGQGTKVEIKR | 0.201 nM | 0.862 nM | 2.58 nM | 2.3 nM | 0.0571 nM | 2.51 nM | 2.33 nM
2 | mouse anti-IL6R monoclonal antibody 1D4 (antibody, V domains shown, Mouse hybridoma mAb) VH: QVQLQQPGAELVKPGASVKLSCKASGYTFTSYWMHWVKVRPGQGLEWIGEINPTNGRTNYNEDFKSKATLTVNSSSSTAYMQLSSLTSEDSAVYYCARLNTHYVFDYWGQGTTLTVSS VL: EIVLTQSPTILAASPGEKITFTCSVSSSISSNYLHWYQQKPGFSPKLLIYRTSNLASGVPARFSGSGSGTSYSLTIGTMEAEDVATYYCQQGSGIPFTFGSGTKLEIK |  |  | 0.467 nM | 0.957 nM |  |  | 
3 | mouse anti-IL6R monoclonal antibody 1A3 (antibody, V domains shown, Mouse hybridoma mAb purified on Protein A) VH: QVQLQQPGAELVKPGASVKLSCKASGYTFTSYWMHWVKQRPAQGLEWIGEINPSNGRTNFNEKFKTKATLTVDKSSNTAYMQLSSLTSEDSAVYSCLRLNTHYVFDYWGQGTTLTVSS VL: EIVLTQSPTTMAASPGEKITITCSASSSISSNYLHWYQQKPGFSPKLLISRTSNLASGVPTRFSGSGSGTSYSLTIGTMEAGDVATYYCQQGSGIPFTFGSGTKLEIK |  |  |  |  |  |  | 0.807 nM
4 | mouse anti-IL6R monoclonal antibody 1H7 (antibody, V domains shown, Mouse hybridoma mAb) VH: QVQLQQPGTELVKPGASVKLSCKASGYTFTNYWMHWVKQRPGQGLDWIGEINPTNGRTNYNENFKSKATLTVDKSSSTAYMQLSSLTSEDSAVYYCARLNTHYVFDSWGQGTTLTLSS VL: EIVLTQSPTTLAASPGEKITFTCSVSSSISSNYLHWYQQKPGFSPKLLISRTSTLASGVPARFSGSGSGTSYSLTIGTMEAEDVATYYCQQGSGIPFTFGSGTKLELK | 0.147 nM | 0.237 nM |  |  | 0.213 nM |  | 
5 | Chimeric 1H7 (antibody, human IgG1, kappa, V domains shown, Mouse variable regions on human IgG1 / human kappa constant regions; also called chimeric antibody 1H7) VH: QVQLQQPGTELVKPGASVKLSCKASGYTFTNYWMHWVKQRPGQGLDWIGEINPTNGRTNYNENFKSKATLTVDKSSSTAYMQLSSLTSEDSAVYYCARLNTHYVFDSWGQGTTLTLSS VL: EIVLTQSPTTLAASPGEKITFTCSVSSSISSNYLHWYQQKPGFSPKLLISRTSTLASGVPARFSGSGSGTSYSLTIGTMEAEDVATYYCQQGSGIPFTFGSGTKLELKR | 0.227 nM | 0.203 nM |  |  |  |  | 

Other lines, results leading:

Row | EC50 (macaca IL6R-his protein [1]) | IC50 (human IL6R-Fc protein [2]) | IC50 (human IL6R-Fc protein [3]) | IC50 (human IL6R-Fc protein [4]) | EC50 (macaca IL6R-his protein [5]) | IC50 (human IL6R-Fc protein [6]) | IC50 (human IL6R-Fc protein [7]) | Binder
6 | 0.242 nM | 0.364 nM |  |  |  |  |  | humanized antibody hu1H7-V5 (antibody, human IgG1, kappa, V domains shown, Human IgG1 / kappa) VH: QVQLVQSGAEVKKPGASVKVSCKASGYTFTNYWMHWVRQAPGQGLEWIGEINPTNGRTNYNENFKSRVTLTVDTSTSTVYMELSSLRSEDTAVYYCARLNTHYVFDSWGQGTLVTVSS VL: EIVLTQSPGTLSLSPGERATLSCSVSSSISSNYLHWYQQKPGLSPRLLISRTSTLASGIPARFSGSGSGTEYTLTISRMQSEDFAVYYCQQGSGIPFTFGQGTKLEIKR
7 |  |  | 0.311 nM | 0.617 nM | 0.14 nM |  |  | mouse anti-IL6R monoclonal antibody 1F7 (antibody, V domains shown, Mouse hybridoma mAb) VH: QVQLQQPGAELVKPGASVKLSCKASDYTFTSYWMHWVKQRPGQGLEWIGEINPSNGRTNYNEKFKNKATLTVDKSSSTAYVQLYSLTSEDSAVYYCARLSIHYVFDYWGQGTTLTVSS VL: ELVLTQSPTTMAASPGEKITFTCSASSSISSNYLHWYQQKPGFSPKLLISGTSNLASGVPPRFSGSGSGTSYSLTIVTMEAEDVATYYCQQGSGIPFTFGSGTKLEIK
8 |  |  |  |  | 0.296 nM | 0.704 nM |  | mouse anti-IL6R monoclonal antibody 3C2 (antibody, V domains shown, Mouse hybridoma mAb) VH: QVQLQQPGTELVKPGASVKLSCKASGYTFTTYWIHWVKQRPGQGLEWIGEINPSNGRTNYNEHFKSKATLTVDKSSSTASMQLSSLTSADSAVYYCARLNTHYVFDSWGQGTTLTVSS VL: EIVLTQSPTTMAASPGEKITITCSASSSISSNYLHWYQQKPGFSPKLLIYRTSNLASGVPTHFSGSGSGTSYSLTIGTMEAEDVATYYCQQGSGIPFTFGSGTKLEIK
9 |  |  |  |  |  | ~1.44 nM |  | mouse anti-IL6R monoclonal antibody 1G1 (antibody, V domains shown, Mouse hybridoma mAb) VH: QVQLQQPGAELVKPGASVKLSCKASGYTFTSYWMHWVKVRPGQGLEWIGEINPTNGRTNYNEDFKSKATLTVESSSSTAYMQFSSLTSEDSAVYYCARLNTHYVFDYWGQGTTLTVSS VL: EIVLTQSPTILAASPGEKITFTCSVSSSISSNYLHWYQQKPGFSPKLLIYRTSNLASGVPARFSGSGSGTSYSLTIGTMEAEDVATYYCQQGSGIPFTFGSGTKLEIK
10 |  |  |  |  | 0.205 nM |  | 0.697 nM | mouse anti-IL6R monoclonal antibody 1B5 (antibody, V domains shown, Mouse hybridoma mAb) VH: QVQLQQPGAELVKPGASVKLSCKASGYTFTSYWMHWVKQRPGQGLEWIGEINPSNGRTNYNENFKSKATLTVDKSSSTAYMQLSSLTSEDSAVYYCARLNTHYVFDYWGQGTTLTVSS VL: EIVLTQSPTILAASPGEKITFTCSVSSSISSNYLHWYQQKPGFSPKLLIYRTSNLASGVPARFSGSGSGTSYSLTIGTMEAEDVATYYCQQGSGIPFTFGSGTKLEIK
